Data taken from publication PMC2808332, “Expanding the Substantial Interactome of NEMO Using Protein Microarrays” (PLoS ONE, 2010).

B1: t-complex 10 (mouse)-like (natural protein, human, UniProt Q8TDR4 1-215, looked up)
chain: MLAGQLEARDPKEGTHPEDPCPGAGAVMEKTAVAAEVLTEDCNTGEMPPLQQQIIRLHQELGRQKSLWADVHGKLRSHIDALREQNMELREKLRALQLQRWKARKKSAASPHAGQESHTLALEPAFGKISPLSADEETIPKYAGHKNQSATLLGQRSSSNNSAPPKPMSLKIERISSWKTPPQENRDKNLSRRRQDRRATPTGRPTPCAERRGGV
notes: t-complex 10 (mouse)-like, human; also called TCP10L; source: insect cell/baculovirus, purified, spotted (Invitrogen Protoarray v4.0)
B2: PHD finger protein 7 (natural protein, human, UniProt Q9BWX1-1 1-381, looked up)
chain: MKTVKEKKECQRLRKSAKTRRVTQRKPSSGPVCWLCLREPGDPEKLGEFLQKDNISVHYFCLILSSKLPQRGQSNRGFHGFLPEDIKKEAARASRKICFVCKKKGAAINCQKDQCLRNFHLPCGQERGCLSQFFGEYKSFCDKHRPTQNIQHGHVGEESCILCCEDLSQQSVENIQSPCCSQAIYHRKCIQKYAHTSAKHFFKCPQCNNRKEFPQEMLRMGIHIPDRDAAWELEPGAFSDLYQRYQHCDAPICLYEQGRDSFEDEGRWCLILCATCGSHGTHRDCSSLRSNSKKWECEECSPAAATDYIPENSGDIPCCSSTFHPEEHFCRDNTLEENPGLSWTDWPEPSLLEKPESSRGRRSYSWRSKGVRITNSCKKSK
notes: PHD finger protein 7, human; also called PHF7; source: insect cell/baculovirus, purified, spotted (Invitrogen Protoarray v4.0)
B3: Vesicle-associated membrane protein 3 (cellubrevin) (natural protein, human, UniProt Q15836 1-100, looked up)
chain: MSTGPTAATGSNRRLQQTQNQVDEVVDIMRVNVDKVLERDQKLSELDDRADALQAGASQFETSAAKLKRKYWWKNCKMWAIGITVLVIFIIIIIVWVVSS
notes: Vesicle-associated membrane protein 3 (cellubrevin), human; also called VAMP3; source: insect cell/baculovirus, purified, spotted (Invitrogen Protoarray v4.0)
B4: Chromosome 19 open reading frame 12 (natural protein, human, UniProt Q9NSK7-4 1-141, looked up)
chain: MTIMVEDIMKLLCSLSGERKMKAAVKHSGKGALVTGAMAFVGGLVGGPPGLAVGGAVGGLLGAWMTSGQFKPVPQILMELPPAEQQRLFNEAAAIIRHLEWTDAVQLTALVMGSEALQQQLLAMLVNYVTKELRAEIQYDD
notes: Chromosome 19 open reading frame 12, human; also called C19ORF12; source: insect cell/baculovirus, purified, spotted (Invitrogen Protoarray v4.0)
B5: Nucleosome assembly protein 1-like 5 (natural protein, human, UniProt Q96NT1 1-182, looked up)
chain: MADSENQGPAEPSQAAAAAEAAAEEVMAEGGAQGGDCDSAAGDPDSAAGQMAEEPQTPAENAPKPKNDFIESLPNSVKCRVLALKKLQKRCDKIEAKFDKEFQALEKKYNDIYKPLLAKIQELTGEMEGCAWTLEGEEEEEEEYEDDEEEGEDEEEEEAAAEAAAGAKHDDAHAEMPDDAKK
notes: Nucleosome assembly protein 1-like 5, human; also called NAP1L5; source: insect cell/baculovirus, purified, spotted (Invitrogen Protoarray v4.0)
B6: Hemoglobin, zeta (natural protein, human, UniProt P02008 1-142, looked up)
chain: MSLTKTERTIIVSMWAKISTQADTIGTETLERLFLSHPQTKTYFPHFDLHPGSAQLRAHGSKVVAAVGDAVKSIDDIGGALSKLSELHAYILRVDPVNFKLLSHCLLVTLAARFPADFTAEAHAAWDKFLSVVSSVLTEKYR
notes: Hemoglobin, zeta, human; also called HBZ; source: insect cell/baculovirus, purified, spotted (Invitrogen Protoarray v4.0)
B7: DnaJ (Hsp40) homolog, subfamily C, member 8 (natural protein, human, UniProt O75937 1-253, looked up)
chain: MAASGESGTSGGGGSTEEAFMTFYSEVKQIEKRDSVLTSKNQIERLTRPGSSYFNLNPFEVLQIDPEVTDEEIKKRFRQLSILVHPDKNQDDADRAQKAFEAVDKAYKLLLDQEQKKRALDVIQAGKEYVEHTVKERKKQLKKEGKPTIVEEDDPELFKQAVYKQTMKLFAELEIKRKEREAKEMHERKRQREEEIEAQEKAKREREWQKNFEESRDGRVDSWRNFQANTKGKKEKKNRTFLRPPKVKMEQRE
notes: DnaJ (Hsp40) homolog, subfamily C, member 8, human; also called DNAJC8; source: insect cell/baculovirus, purified, spotted (Invitrogen Protoarray v4.0)
B8: Adenine phosphoribosyltransferase (natural protein, human, UniProt P07741-1 1-180, looked up)
chain: MADSELQLVEQRIRSFPDFPTPGVVFRDISPVLKDPASFRAAIGLLARHLKATHGGRIDYIAGLDSRGFLFGPSLAQELGLGCVLIRKRGKLPGPTLWASYSLEYGKAELEIQKDALEPGQRVVVVDDLLATGGTMNAACELLGRLQAEVLECVSLVELTSLKGREKLAPVPFFSLLQYE
notes: Adenine phosphoribosyltransferase, human; also called APRT; source: insect cell/baculovirus, purified, spotted (Invitrogen Protoarray v4.0)
B9: Family with sequence similarity 128, member A (natural protein, human, UniProt Q6P582 1-158, looked up)
chain: MAAQGVGPGPGSAAPPGLEAARQKLALRRKKVLSTEEMELYELAQAAGGGIDPDVFKILVDLLKLNVAPLAVFQMLKSMCAGQRLASEPQDPAAVSLPTSSVPETRGRDKGSAALGGVLALAERSNHEGSSQRMPRQPSATRLPKGGGPGKSPTQGST
notes: also called FAM128A; source: insect cell/baculovirus, purified, spotted (Invitrogen Protoarray v4.0)
B10: Tumor protein, translationally-controlled 1 (natural protein, human, UniProt P13693 1-172, looked up)
chain: MIIYRDLISHDEMFSDIYKIREIADGLCLEVEGKMVSRTEGNIDDSLIGGNASAEGPEGEGTESTVITGVDIVMNHHLQETSFTKEAYKKYIKDYMKSIKGKLEEQRPERVKPFMTGAAEQIKHILANFKNYQFFIGENMNPDGMVALLDYREDGVTPYMIFFKDGLEMEKC
notes: Tumor protein, translationally-controlled 1, human; also called TPT1; source: insect cell/baculovirus, purified, spotted (Invitrogen Protoarray v4.0)
B11: Nucleolar protein family A, member 2 (natural protein, human, UniProt Q9NX24 1-153, looked up)
chain: MTKIKADPDGPEAQAEACSGERTYQELLVNQNPIAQPLASRRLTRKLYKCIKKAVKQKQIRRGVKEVQKFVNKGEKGIMVLAGDTLPIEVYCHLPVMCEDRNLPYVYIPSKTDLGAAAGSKRPTCVIMVKPHEEYQEAYDECLEEVQSLPLPL
notes: Nucleolar protein family A, member 2, human; also called NOLA2; source: insect cell/baculovirus, purified, spotted (Invitrogen Protoarray v4.0)
B12: LIM and cysteine-rich domains 1 (natural protein, human, UniProt Q9NZU5-1 1-365, looked up)
chain: MAKVAKDLNPGVKKMSLGQLQSARGVACLGCKGTCSGFEPHSWRKICKSCKCSQEDHCLTSDLEDDRKIGRLLMDSKYSTLTARVKGGDGIRIYKRNRMIMTNPIATGKDPTFDTITYEWAPPGVTQKLGLQYMELIPKEKQPVTGTEGAFYRRRQLMHQLPIYDQDPSRCRGLLENELKLMEEFVKQYKSEALGVGEVALPGQGGLPKEEGKQQEKPEGAETTAATTNGSLSDPSKEVEYVCELCKGAAPPDSPVVYSDRAGYNKQWHPTCFVCAKCSEPLVDLIYFWKDGAPWCGRHYCESLRPRCSGCDEIIFAEDYQRVEDLAWHRKHFVCEGCEQLLSGRAYIVTKGQLLCPTCSKSKRS
notes: LIM and cysteine-rich domains 1, human; also called LMCD1; source: insect cell/baculovirus, purified, spotted (Invitrogen Protoarray v4.0)

The binders below were run against T1, NEMO (NF-κB essential modulator), tag-free, biotinylated (human, UniProt Q9Y6K9 1-419, biotin (in vitro biotinylation kit, biotin:NEMO molar ratio 9:1)) (assay: peptide or protein array; Invitrogen Protoarray v4.0, about 8,400 human proteins spotted on nitrocellulose-coated glass slides; 10 µg biotinylated tag-free NEMO in 120 µl probing buffer (PBS, 0.5 mM DTT, 5 mM MgCl2, 5% glycerol, 0.05% Triton X-100), 4°C, 1.5 h; bound NEMO detected with labelled streptavidin; hits Z-score > 3, hits of the biotin-GST control array subtracted). Settings: both partners purified.
T1 construct: NEMO, NF-κB essential modulator, human, 48 kDa; also called biotinylated NEMO; biotin-NEMO; source: E. coli BL21(DE3), purified (glutathione sepharose), GST removed with thrombin, biotinylated in vitro
B1: binds. B2: binds. B3: binds. B4: binds. B5: binds. B6: binds. B7: binds. B8: binds. B9: binds. B10: binds. B11: binds. B12: binds.
